B1: HDV Ribozyme (parent)
chain: GGCCGGCAUGGUCCCAGCCUCCUCGCUGGCGCCGGCUGGGCAACAUUCCGAGGGGACCGUCCCCUCGGUAAUGGCGAAUGGGACCCA

The data set covers variants of B1. The data set can be described thus: self-cleavage, relative activity (ratio to wild type); higher = more cleavage; co-transcriptional.
Take A43C C48A: the self-cleavage was determined as 0.386. The result for C30G C66U reads 0.185; that for U20C G55A, 0.0405; that for C19A C33G, 0.0475.

On to C36A G59U, for which the self-cleavage stood at 0.138.

Regarding G5U C7G, the self-cleavage was determined as 0.104. C57U U72A: the self-cleavage is 0.657. The same measure for C7G G25A: 0.104; for G6U G40A: 0.587; for C32U C36A: 0.17. The result for G2C C75U reads 0.0594. C21G G73U: the self-cleavage turned out to be 0.026. The same measure for G54C U72C: 0.69; for C26A C61A: 0.865.

For the variant C26A C61G, the self-cleavage amounted to 1.04. The result for A51C G53A reads 0.491.

With G11A G80U, the self-cleavage came out at 0.0839. The same measure for G34A A71G: 0.178. Regarding G2U C18A, the self-cleavage is 0. The same measure for A51G U65A: 0.7. Regarding C15U G31C, the self-cleavage worked out at 0.208. The same measure for U20C C30U: 0.157; for G53C A78C: 0.0678; for G1U C64G: 0.432.

As to G1U A78U, the self-cleavage was determined as 0.415.

Consider C32A C62G, for which the self-cleavage is 0.0489. Turning to G5A G67A, the self-cleavage worked out at 0.125. The result for C13U G17A reads 0.623; that for G52C C86U, 1.2. The same measure for C36A U72G: 0.0978; for C19G U46G: 0.107.

Turning to A16C C26U, the self-cleavage was found to be 0.886. The result for G80U C85A reads 0.288; that for G35U U72A, 0.172; that for A45G C85G, 0.88. With G17U G55C, the self-cleavage was 0.453.

Take G74A A77U: the self-cleavage was found to be 0.267. The same measure for C30U A56C: 0.772; for G53A G74A: 0.554. With G29C C66A, the self-cleavage was 0.0475. The result for G59U C66A reads 0.904; that for C14G G80C, 0.0723. The same measure for G52A A56U: 1.1; for G28C A78G: 0.26. The result for G52C G73A reads 0.627. On to A43G G55U, for which the self-cleavage amounted to 0.378. The result for A8U C57G reads 1.07. The result for C14U G73U reads 0.309; that for U47G G73U, 0.458. The same measure for C58A C66U: 0.917; for G10C A87C: 1.17; for U12A A70C: 0.332.

For C41A A70C, the self-cleavage came out at 0.527. The same measure for U60G A78G: 0.72; for U12G C85G: 0.369; for G6A G29U: 0.0563. The same measure for C62G G76A: 1.02.

Turning to A45U A70G, the self-cleavage turned out to be 0.808.

G5C C61U: the self-cleavage came out at 0. As to C15A C63G, the self-cleavage amounted to 0.539.

With G28A G55U, the self-cleavage worked out at 0.056. The same measure for C13G A78U: 0.185. The same measure for C18G C86U: 0.0875. The result for G35U A78C reads 0.133. Regarding U37C C62U, the self-cleavage turned out to be 1.26. The same measure for C21A U69G: 0.0723; for G38A C84U: 0.109. The result for A45G G67U reads 0.933; that for G25U C75A, 0.0941; that for G34C U65A, 0.138.

For G34U G54U, the self-cleavage amounted to 0.0923. As to U12C U47C, the self-cleavage worked out at 0.185. The same measure for U27A G53C: 0.831; for G54C G80A: 0.362.

Regarding G5A U23G, the self-cleavage was 0.0923. The same measure for U23A C61G: 1.08. The same measure for C41G G54U: 0.739; for G1C A70U: 0.115. The result for C49A A87G reads 0.839. Consider G74U C84G, for which the self-cleavage was determined as 0.126. The same measure for U20A U46G: 0.166.

For the variant G17C G74U, the self-cleavage stood at 0.0554.

As for C7A C49G, the self-cleavage was determined as 0.291. Regarding A16U A77U, the self-cleavage came out at 0.511. The result for C13A G68U reads 0.125; that for U46G U60C, 0.665; that for G2U C13U, 0. With C32U G52C, the self-cleavage was 0.751.

Consider G6A G50U, for which the self-cleavage is 0.708. The result for G38A U79C reads 0.161. The result for C61G G68U reads 0.964. The result for A51G G53A reads 0.831; that for A78U C84A, 0.185; that for U23G C63A, 0.623. As to G40U G53A, the self-cleavage amounted to 0.715. The result for C33G G81U reads 0.0354; that for G5C G76A, 0.415; that for G25A C48U, 0.264. The same measure for C13G C22G: 0.131; for G34U C66U: 0.166. Regarding U9A A43G, the self-cleavage is 0.712. The same measure for C19A G50C: 0.0923. The same measure for G6A C86U: 0.759; for C24U C44G: 0.119.

With A42G A87G, the self-cleavage stood at 0.602.

As for G31U G52U, the self-cleavage worked out at 0.492. The result for C18A G55C reads 0.133; that for C4A G10C, 0.141. The result for U20G G74U reads 0; that for A16U C24U, 0.314. With G11A G76C, the self-cleavage turned out to be 0.796. The same measure for C32U C86G: 0.739. The same measure for U69C A70U: 0.875. The same measure for G52A C61G: 0.897. For C32U A42G, the self-cleavage is 0.244. The same measure for G10A C15U: 0.332; for A45U G67A: 0.717; for A43G U47G: 0.997. The result for G76C A87U reads 1.1. As to A56U A78U, the self-cleavage was 0.0573. The same measure for A70G A71C: 0.712; for G55U A56C: 0.944. The result for A45C A56G reads 0.615. The same measure for C4G G17C: 0.0354; for U47A C62U: 1.03; for A56U G67C: 0.904. Take C18G C64U: the self-cleavage came to 0.147.

On to C3U C61G, for which the self-cleavage is 0.816.

Regarding C19G U60C, the self-cleavage is 0.0627. The same measure for C15U C24U: 0.717; for A43U C44A: 1.16. Turning to U65G C75G, the self-cleavage came to 0.323. The result for G54U U60G reads 0.989; that for U23A A77C, 0.332; that for C26U G73A, 0.747. The same measure for C24G U79C: 0.165; for G40A C86G: 1.01; for U23G G34U: 0.0959. The same measure for G81C C84A: 0.26; for C19A G29U: 0.0733.

For C44U A83C, the self-cleavage was determined as 0.314. The same measure for U69A C75U: 0.155; for G17A C61A: 0.594; for C18U G74C: 0.0519. The result for A51C G82U reads 0.386; that for C15G G55U, 0.677; that for C13A U79A, 0.119. Regarding U9G G74C, the self-cleavage was 0.437. The result for G39A U47A reads 0.356; that for C14A G53A, 0.499. The same measure for C3G G67U: 0.626; for G82A C85U: 0.495. The result for C62G C86A reads 0.752; that for C3G C15G, 0.266. Consider G38C A43C, for which the self-cleavage is 0.26. The same measure for G10U C32U: 0.546. The same measure for C15G G35A: 0.196.

As for A43C G82C, the self-cleavage came out at 0. Take G59C G81A: the self-cleavage turned out to be 0.69. The same measure for G39U C44A: 0.0627; for A8G G52C: 1.26. The result for G5C U60C reads 0; that for A51U G59U, 1.02; that for A56C C57A, 1.22. The result for A8G U69A reads 0.942. Consider C4A A8G, for which the self-cleavage was 0.192. The result for G6A G81U reads 0.0773.

Values taken from the RNAGym collection of RNA variant scans (doi:10.7554/elife.80360).
